{"source": "the supplement of paper PMC10567573", "parents": {"B1": {"name": "ZNF511 (parent)", "chain": "EPLPVERDPAAGAAPFRFVARPVR"}}, "data": [{"variants_of": "B1", "experiment": "protein stability index of a GFP-peptide fusion (GPS, HEK-293T) (PSI 1-6); higher = more stable", "details": "c terminus: a fixed tail appended", "values": [{"variant": "EPLPVERDPAAGAAPRRFVARPVR", "note": "[F16R]", "protein stability index": 5.16}, {"variant": "EPLPVERDPAAGAAPDRFVARPVR", "note": "[F16D]", "protein stability index": 5.52}, {"variant": "EPLPVERDPAAGAAPWRFVARPVR", "note": "[F16W]", "protein stability index": 2.46}, {"variant": "EPLPVERDPAAGAAPTRFVARPVR", "note": "[F16T]", "protein stability index": 4.52}, {"variant": "EPLPVERDPAAGAAPYRFVARPVR", "note": "[F16Y]", "protein stability index": 3.82}, {"variant": "EPLPVERDPAAGAAPGRFVARPVR", "note": "[F16G]", "protein stability index": 5.43}, {"variant": "EPLPVERDPAAGAAPMRFVARPVR", "note": "[F16M]", "protein stability index": 3.69}, {"variant": "EPLPVERDPAAGAAPNRFVARPVR", "note": "[F16N]", "protein stability index": 4.86}, {"variant": "EPLPVERDPAAGAAPARFVARPVR", "note": "[F16A]", "protein stability index": 4.67}, {"variant": "EPLPVERDPAAGAAPQRFVARPVR", "note": "[F16Q]", "protein stability index": 5.34}, {"variant": "EPLPVERDPAAGAAPPRFVARPVR", "note": "[F16P]", "protein stability index": 5.26}, {"variant": "EPLPVERDPAAGAAPVRFVARPVR", "note": "[F16V]", "protein stability index": 4.62}, {"variant": "EPLPVERDPAAGAAPHRFVARPVR", "note": "[F16H]", "protein stability index": 4.75}, {"variant": "EPLPVERDPAAGAAPLRFVARPVR", "note": "[F16L]", "protein stability index": 4.06}, {"variant": "EPLPVERDPAAGAAPCRFVARPVR", "note": "[F16C]", "protein stability index": 4.08}, {"variant": "EPLPVERDPAAGAAPIRFVARPVR", "note": "[F16I]", "protein stability index": 4.73}, {"variant": "EPLPVERDPAAGAAPERFVARPVR", "note": "[F16E]", "protein stability index": 5.25}, {"variant": "EPLPVERDPAAGAAPSRFVARPVR", "note": "[F16S]", "protein stability index": 4.88}, {"variant": "EPLPVERDPAAGAAPKRFVARPVR", "note": "[F16K]", "protein stability index": 4.67}, {"variant": "EPLPVERDPAAGAAPFRHVARPVR", "note": "[F18H]", "protein stability index": 4.71}, {"variant": "EPLPVERDPAAGAAPFRQVARPVR", "note": "[F18Q]", "protein stability index": 4.79}, {"variant": "EPLPVERDPAAGAAPFRWVARPVR", "note": "[F18W]", "protein stability index": 4.43}, {"variant": "EPLPVERDPAAGAAPFRTVARPVR", "note": "[F18T]", "protein stability index": 4.86}, {"variant": "EPLPVERDPAAGAAPFRCVARPVR", "note": "[F18C]", "protein stability index": 4.59}, {"variant": "EPLPVERDPAAGAAPFRIVARPVR", "note": "[F18I]", "protein stability index": 4.71}, {"variant": "EPLPVERDPAAGAAPFREVARPVR", "note": "[F18E]", "protein stability index": 5.37}, {"variant": "EPLPVERDPAAGAAPFRKVARPVR", "note": "[F18K]", "protein stability index": 4.87}, {"variant": "EPLPVERDPAAGAAPFRAVARPVR", "note": "[F18A]", "protein stability index": 4.83}, {"variant": "EPLPVERDPAAGAAPFRDVARPVR", "note": "[F18D]", "protein stability index": 4.97}, {"variant": "EPLPVERDPAAGAAPFRGVARPVR", "note": "[F18G]", "protein stability index": 5.14}, {"variant": "EPLPVERDPAAGAAPFRYVARPVR", "note": "[F18Y]", "protein stability index": 4.32}, {"variant": "EPLPVERDPAAGAAPFRLVARPVR", "note": "[F18L]", "protein stability index": 4.49}, {"variant": "EPLPVERDPAAGAAPFRRVARPVR", "note": "[F18R]", "protein stability index": 4.91}, {"variant": "EPLPVERDPAAGAAPFRSVARPVR", "note": "[F18S]", "protein stability index": 5.18}, {"variant": "EPLPVERDPAAGAAPFRMVARPVR", "note": "[F18M]", "protein stability index": 4.6}, {"variant": "EPLPVERDPAAGAAPFRPVARPVR", "note": "[F18P]", "protein stability index": 5.01}, {"variant": "EPLPVERDPAAGAAPFRNVARPVR", "note": "[F18N]", "protein stability index": 4.99}, {"variant": "EPLPVERDPAAGAAPFRVVARPVR", "note": "[F18V]", "protein stability index": 4.6}, {"variant": "EPLPVERDPAAGAAPFPFVARPVR", "note": "[R17P]", "protein stability index": 4.88}, {"variant": "EPLPVERDPAAGAAPFTFVARPVR", "note": "[R17T]", "protein stability index": 4.19}, {"variant": "EPLPVERDPAAGAAPFAFVARPVR", "note": "[R17A]", "protein stability index": 2.96}, {"variant": "EPLPVERDPAAGAAPFIFVARPVR", "note": "[R17I]", "protein stability index": 3.6}, {"variant": "EPLPVERDPAAGAAPFDFVARPVR", "note": "[R17D]", "protein stability index": 4.13}, {"variant": "EPLPVERDPAAGAAPFFFVARPVR", "note": "[R17F]", "protein stability index": 2.56}, {"variant": "EPLPVERDPAAGAAPFNFVARPVR", "note": "[R17N]", "protein stability index": 3.45}, {"variant": "EPLPVERDPAAGAAPFGFVARPVR", "note": "[R17G]", "protein stability index": 4.86}, {"variant": "EPLPVERDPAAGAAPFVFVARPVR", "note": "[R17V]", "protein stability index": 4.21}, {"variant": "EPLPVERDPAAGAAPFYFVARPVR", "note": "[R17Y]", "protein stability index": 2.98}, {"variant": "EPLPVERDPAAGAAPFKFVARPVR", "note": "[R17K]", "protein stability index": 4.42}, {"variant": "EPLPVERDPAAGAAPFSFVARPVR", "note": "[R17S]", "protein stability index": 3.87}, {"variant": "EPLPVERDPAAGAAPFHFVARPVR", "note": "[R17H]", "protein stability index": 4.17}, {"variant": "EPLPVERDPAAGAAPFEFVARPVR", "note": "[R17E]", "protein stability index": 4.94}, {"variant": "EPLPVERDPAAGAAPFMFVARPVR", "note": "[R17M]", "protein stability index": 3.88}, {"variant": "EPLPVERDPAAGAAPFCFVARPVR", "note": "[R17C]", "protein stability index": 3.88}, {"variant": "EPLPVERDPAAGAAPFQFVARPVR", "note": "[R17Q]", "protein stability index": 4.65}, {"variant": "EPLPVERDPAAGAAPFWFVARPVR", "note": "[R17W]", "protein stability index": 3.4}, {"variant": "EPLPVERDPAAGAAPFLFVARPVR", "note": "[R17L]", "protein stability index": 3.64}, {"variant": "EPLPVERDPAAGAAPFRFVERPVR", "note": "[A20E]", "protein stability index": 3.03}, {"variant": "EPLPVERDPAAGAAPFRFVCRPVR", "note": "[A20C]", "protein stability index": 1.61}, {"variant": "EPLPVERDPAAGAAPFRFVDRPVR", "note": "[A20D]", "protein stability index": 2.46}, {"variant": "EPLPVERDPAAGAAPFRFVGRPVR", "note": "[A20G]", "protein stability index": 2.04}, {"variant": "EPLPVERDPAAGAAPFRFVFRPVR", "note": "[A20F]", "protein stability index": 3.42}, {"variant": "EPLPVERDPAAGAAPFRFWARPVR", "note": "[V19W]", "protein stability index": 3.65}, {"variant": "EPLPVERDPAAGAAPFRFKARPVR", "note": "[V19K]", "protein stability index": 4.83}, {"variant": "EPLPVERDPAAGAAPFRFFARPVR", "note": "[V19F]", "protein stability index": 3.88}, {"variant": "EPLPVERDPAAGAAPFRFCARPVR", "note": "[V19C]", "protein stability index": 3.22}, {"variant": "EPLPVERDPAAGAAPFRFAARPVR", "note": "[V19A]", "protein stability index": 4.47}, {"variant": "EPLPVERDPAAGAAPFRFMARPVR", "note": "[V19M]", "protein stability index": 4.1}, {"variant": "EPLPVERDPAAGAAPFRFNARPVR", "note": "[V19N]", "protein stability index": 4.36}, {"variant": "EPLPVERDPAAGAAPFRFLARPVR", "note": "[V19L]", "protein stability index": 3.97}, {"variant": "EPLPVERDPAAGAAPFRFHARPVR", "note": "[V19H]", "protein stability index": 1.62}, {"variant": "EPLPVERDPAAGAAPFRFDARPVR", "note": "[V19D]", "protein stability index": 4.67}, {"variant": "EPLPVERDPAAGAAPFRFEARPVR", "note": "[V19E]", "protein stability index": 4.57}, {"variant": "EPLPVERDPAAGAAPFRFPARPVR", "note": "[V19P]", "protein stability index": 5.1}, {"variant": "EPLPVERDPAAGAAPFRFTARPVR", "note": "[V19T]", "protein stability index": 3.97}, {"variant": "EPLPVERDPAAGAAPFRFQARPVR", "note": "[V19Q]", "protein stability index": 2.99}, {"variant": "EPLPVERDPAAGAAPFRFRARPVR", "note": "[V19R]", "protein stability index": 4.22}, {"variant": "EPLPVERDPAAGAAPFRFSARPVR", "note": "[V19S]", "protein stability index": 4.62}, {"variant": "EPLPVERDPAAGAAPFRFGARPVR", "note": "[V19G]", "protein stability index": 5.14}, {"variant": "EPLPVERDPAAGAAPFRFYARPVR", "note": "[V19Y]", "protein stability index": 4.31}, {"variant": "EPLPVERDPAAGAAPFRFIARPVR", "note": "[V19I]", "protein stability index": 2.89}, {"variant": "EPLPVERDPAAGAASFRFVARPVR", "note": "[P15S]", "protein stability index": 4.09}, {"variant": "EPLPVERDPAAGAAQFRFVARPVR", "note": "[P15Q]", "protein stability index": 3.78}, {"variant": "EPLPVERDPAAGAAMFRFVARPVR", "note": "[P15M]", "protein stability index": 3.73}, {"variant": "EPLPVERDPAAGAAKFRFVARPVR", "note": "[P15K]", "protein stability index": 4.09}, {"variant": "EPLPVERDPAAGAAHFRFVARPVR", "note": "[P15H]", "protein stability index": 4.05}, {"variant": "EPLPVERDPAAGAARFRFVARPVR", "note": "[P15R]", "protein stability index": 3.78}, {"variant": "EPLPVERDPAAGAATFRFVARPVR", "note": "[P15T]", "protein stability index": 3.94}, {"variant": "EPLPVERDPAAGAALFRFVARPVR", "note": "[P15L]", "protein stability index": 3.68}, {"variant": "EPLPVERDPAAGAAWFRFVARPVR", "note": "[P15W]", "protein stability index": 2.32}, {"variant": "EPLPVERDPAAGAAVFRFVARPVR", "note": "[P15V]", "protein stability index": 3.12}, {"variant": "EPLPVERDPAAGAANFRFVARPVR", "note": "[P15N]", "protein stability index": 3.64}, {"variant": "EPLPVERDPAAGAAIFRFVARPVR", "note": "[P15I]", "protein stability index": 3.22}, {"variant": "EPLPVERDPAAGAAGFRFVARPVR", "note": "[P15G]", "protein stability index": 3.84}]}]}
